Source: paper doi:10.1101/2023.10.09.561484

How the values were obtained:
[1] = target: EGFP-Pro(K10R/Y12A) (Streptomyces mobaraensis); test: BLI
[2] = target: EGFP-Pro(K10R) (Streptomyces mobaraensis); test: BLI

B1: ΔproMTG lacking the C-terminal His-tag (recombinant mature microbial transglutaminase) (enzyme)
chain: DSDDRVTPPAEPLDRMPDPYRPSYGRAETVVNNYIRKWQQVYSHRDGRKQQMTEEQREWLSYGCVGVTWVNSGQYPTNRLAFASFDEDRFKNELKNGRPRSGETRAEFEGRVAKESFDEEKGFQRAREVASVMNRALENAHDESAYLDNLKKELANGNDALRNEDARSPFYSALRNTPSFKERNGGNHDPSRMKAVIYSKHFWSGQDRSSSADKRKYGDPDAFRPAPGTGLVDMSRDRNIPRSPTSPGEGFVNFDYGWFGAQTEADADKTVWTHGNHYHAPNGSLGAMHVYESKFRNWSEGYSDFDRGAYVITFIPKSWNTAPDKVKQGWP
Kd [1]: 7.85 µM
Kd [2]: 19 nM
